B1: bacteriophage T4 gp14, purified (natural protein)
chain: MATYDKNLFAKLENRTGYSQTNETEILNPYVNFNHYKNSQILADVLVAESIQMRGVECYYVPREYVSPDLIFGEDLKNKFTKAWKFAAYLNSFEGYEGAKSFFSNFGMQVQDEVTLSINPNLFKHQVNGKEPKEGDLIYFPMDNSLFEINWVEPYDPFYQLGQNAIRKITAGKFIYSGEEINPVLQKNEGINIPEFSELELNAVRNLNGIHDINIDQYAEVDQINSEAKEYVEPYVVVNNRGKSFESSPFDNDFMD
B2: gp15 C-terminal truncation mutant (residues 1-261) (domain or fragment, bacteriophage T4, UniProt P11112 1-261, looked up)
chain: MFGYFYNSSFRRYATLMGDLFSNIQIKRQLESGDKFIRVPITYASKEHFMMKLNKWTSINSQEDVAKVETILPRINLHLVDFSYNAPFKTNILNQNLLQKGATSVVSQYNPSPIKMIYELSIFTRYEDDMFQIVEQILPYFQPHFNTTMYEQFGNDIPFKRDIKIVLMSAAIDEAIDGDNLSRRRIEWSLTFEVNGWMYPPVDDAEGLIRTTYTDFHANTRDLPDGEGVFESVDSEVVPRDIDPEDWDGTVKQTFTSNVNR

Tests used:
[1] = molecular target: purified phage T4 heads (bacteriophage T4) (UniProt P13334); experiment: co-sedimentation
Sequence of purified phage T4 heads (bacteriophage T4) (P13334 whole entry, looked up): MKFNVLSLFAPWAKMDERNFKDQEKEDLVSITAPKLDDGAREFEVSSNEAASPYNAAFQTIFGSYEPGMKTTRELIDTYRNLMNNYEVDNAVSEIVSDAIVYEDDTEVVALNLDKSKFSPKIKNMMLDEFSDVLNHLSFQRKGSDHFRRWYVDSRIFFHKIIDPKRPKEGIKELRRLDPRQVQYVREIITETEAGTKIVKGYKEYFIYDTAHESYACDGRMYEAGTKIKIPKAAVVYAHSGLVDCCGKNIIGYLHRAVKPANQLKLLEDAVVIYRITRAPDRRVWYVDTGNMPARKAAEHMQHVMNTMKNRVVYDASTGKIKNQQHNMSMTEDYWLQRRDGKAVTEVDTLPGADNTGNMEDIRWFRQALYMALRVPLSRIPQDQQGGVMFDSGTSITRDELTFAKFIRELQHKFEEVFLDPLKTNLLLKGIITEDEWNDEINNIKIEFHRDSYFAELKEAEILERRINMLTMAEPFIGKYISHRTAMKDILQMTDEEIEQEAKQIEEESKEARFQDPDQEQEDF

crystal structure = molecular target: the molecule itself; experiment: crystal structure

Binder | stoichiometry N (copies per head) [1] | stoichiometry N (crystal structure)
B1 | 6 | 
B2 |  | 6
